This note sets out measurements from patent publication US20100015650.

The target of this data set is T1, BRB1 tyrosine kinase substrate peptide.
T1 chain: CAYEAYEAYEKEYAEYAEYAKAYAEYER

B1: TYK2 (protein)
chain: PHNLADVLTVNPDSPASDPTVFHKRYLKKIRDLGEGHFGKVSLYCYDPTNDGTGEMVAVKALKADCGPQHRSGWKQEIDILRTLYHEHIIKYKGCCEDQGEKSLQLVMEYVPLGSLRDYLPRHSIGLAQLLLFAQQICEGMAYLHAQHYIHRDLAARNVLLDNDRLVKIGDFGLAKAVPEGHEYYRVREDGDSPVFWYAPECLKEYKFYYASDVWSFGVTLYELLTHCDSSQSPPTKFLELIGIAQGQMTVLRLTELLERGERLPRPDKCPCEVYHLMKNCWETEASFRPTFENLIPILKTVHEKYQGQAPSVFSVC
In the case of B1, the Signal to Noise ratio with BRB1 Peptide (TR-FRET kinase assay; kinase 4 nM) is 7.3.

B2: TEC (protein)
chain: MNFNTILEEILIKRSQQKKKTSPLNYKERLFVLTKSMLTYYEGRAEKKYRKGFIDVSKIKCVEIVKNDDGVIPCQNKYPFQVVHDANTLYIFAPSPQSRDLWVKKLKEEIKNNNNIMIKYHPKFWTDGSYQCCRQTEKLAPGCEKYNLFESSIRKALPPAPETKKRRPPPPIPLEEEDNSEEIVVAMYDFQAAEGHDLRLERGQEYLILEKNDVHWWRARDKYGNEGYIPSNYVTGKKSNNLDQYEWYCRNMNRSKAEQLLRSEDKEGGFMVRDSSQPGLYTVSLYTKFGGEGSSGFRHYHIKETTTSPKKYYLAEKHAFGSIPEIIEYHKHNAAGLVTRLRYPVSVKGKNAPTTAGFSYEKWEINPSELTFMRELGSGLFGVVRLGKWRAQYKVAIKAIREGAMCEEDFIEEAKVMMKLTHPKLVQLYGVCTQQKPIYIVTEFMERGCLLNFLRQRQGHFSRDVLLSMCQDVCEGMEYLERNSFIHRDLAARNCLVSEAGVVKVSDFGMARYVLDDQYTSSSGAKFPVKWCPPEVFNYSRFSSKSDVWSFGVLMWEVFTEGRMPFEKYTNYEVVTMVTRGHRLYQPKLASNYVYEVMLRCWQEKPEGRPSFEDLLRTIDELVECEETFGR
As for B2, the Signal to Noise ratio with BRB1 Peptide (TR-FRET kinase assay; kinase 0.5 nM) amounted to 18.6.

B3: LYNb (protein)
chain: MGCIKSKGKDSLSDDGVDLKTQPVPESQLLPGQRFQTKDPEEQGDIVVALYPYDGIHPDDLSFKKGEKMKVLEEHGEWWKAKSLLTKKEGFIPSNYVAKLNTLETEEWFFKDITRKDAERQLLAPGNSAGAFLIRESETLKGSFSLSVRDFDPVHGDVIKHYKIRSLDNGGYYISPRITFPCISDMIKHYQKQADGLCRRLEKACISPKPQKPWDKDAWEIPRESIKLVKRLGAGQFGEVWMGYYNNSTKVAVKTLKPGTMSVQAFLEEANLMKTLQHDKLVRLYAVVTREEPIYIITEYMAKGSLLDFLKSDEGGKVLLPKLIDFSAQIAEGMAYIERKNYIHRDLRAANVLVSESLMCKIADFGLARVIEDNEYTAREGAKFPIKWTAPEAINFGCFTIKSDVWSFGILLYEIVTYGKIPYPGRTNADVMTALSQGYRMPRVENCPDELYDIMKMCWKEKAEERPTFDYLQSVLDDFYTATEGQYQQQP
With B3, the Signal to Noise Ratio with BRB1 Peptide (TR-FRET kinase assay; kinase 1 nM) stood at 33.1.

B4: ZAP70 (protein)
chain: MPDPAAHLPFFYGSISRAEAEEHLKLAGMADGLFLLRQCLRSLGGYVLSLVHDVRFHHFPIERQLNGTYAIAGGKAHCGPAELCEFYSRDPDGLPCNLRKPCNRPSGLEPQPGVFDCLRDAMVRDYVRQTWKLEGEALEQAIISQAPQVEKLIATTAHERMPWYHSSLTREEAERKLYSGAQTDGKFLLRPRKEQGTYALSLIYGKTVYHYLISQDKAGKYCIPEGTKFDTLWQLVEYLKLKADGLIYCLKEACPNSSASNASGAAAPTLPAHPSTLTHPQRRIDTLNSDGYTPEPARITSPDKPRPMPMDTSVYESPYSDPEELKDKKLFLKRDNLLIADIELGCGNFGSVRQGVYRMRKKQIDVAIKVLKQGTEKADTEEMMREAQIMHQLDNPYIVRLIGVCQAEALMLVMEMAGGGPLHKFLVGKREEIPVSNVAELLHQVSMGMKYLEEKNFVHRDLAARNVLLVNRHYAKISDFGLSKALGADDSYYTARSAGKWPLKWYAPECINFRKFSSRSDVWSYGVTMWEALSYGQKPYKKMKGPEVMAFIEQGKRMECPPECPPELYALMSDCWIYKWEDRPDFLTVEQRMRACYYSLASKVEGPPGSTQKAEAACA
For the protein B4, the Signal to Noise ratio with BRB1 Peptide (TR-FRET kinase assay; kinase 4 nM) was 7.6.

B5: TNK1 (protein)
chain: MLPEAGSLWLLKLLRDIQLAQFYWPILEELNVTRPEHFDFVKPEDLDGIGMGRPAQRRLSEALKRLRSGPKSKNWVYKILGGFAPEHKEPTLPSDSPRHLPEPEGGLKCLIPEGAVCRGELLGSGCFGVVHRGLWTLPSGKSVPVAVKSLRVGPEGPMGTELGDFLREVSVMMNLEHPHVLRLHGLVLGQPLQMVMELAPLGSLHARLTAPAPTPPLLVALLCLFLRQLAGAMAYLGARGLVHRDLATRNLLLASPRTIKVADFGLVRPLGGARGRYVMGGPRPIPYAWCAPESLRHGAFSSASDVWMFGVTLWEMFSGGEEPWAGVPPYLILQRLEDRARLPRPPLCSRALYSLALRCWAPHPADRPSFSHLEGLLQEAGPSEACCVRDVTEPGALRMETGDPITVIEGSSSFHSPDSTIWKGQNGRTFKVGSFPASAVTLADAGGLPATRPVHRGTPARGDQHPGSIDGDRKKANLWDAPPARGQRRNMPLERMKGISRSLESVLSLGPRPTGGGSSPPEIRQARAVPQGPPGLPPRPPLSSSSPQPSQPSRERLPWPKRKPPHNHPMGMPGARKAAALSGGLLSDPELQRKIMEVELSVHGVTHQECQTALGATGGDVVSAIRNLKVDQLFHLSSRSRADCWRILEHYQWDLSAASRYVLARP
Regarding B5, the Signal to Noise Ratio with BRB1 Peptide (TR-FRET kinase assay; kinase 1 nM) was 6.8.

B6: SRM (protein)
chain: MEPFLRRRLAFLSFFWDKIWPAGGEPDHGTPGSLDPNTDPVPTLPAEPCSPFPQLFLALYDFTARCGGELSVRRGDRLCALEEGGGYIFARRLSGQPSAGLVPITHVAKASPETLSDQPWYFSGVSRTQAQQLLLSPPNEPGAFLIRPSESSLGGYSLSVRAQAKVCHYRVSMAADGSLYLQKGRLFPGLEELLTYYKANWKLIQNPLLQPCMPQKAPRQDVWERPHSEFALGRKLGEGYFGEVWEGLWLGSLPVAIKVIKSANMKLTDLAKEIQTLKGLRHERLIRLHAVCSGGEPVYIVTELMRKGNLQAFLGTPEGRALRLPPLLGFACQVAEGMSYLEEQRVVHRDLAARNVLVDDGLACKVADFGLARLLKDDIYSPSSSSKIPVKWTAPEAANYRVFSQKSDVWSFGVLLHEVFTYGQCPYEGMTNHETLQQIMRGYRLPRPAACPAEVYVLMLECWRSSPEERPSFATLREKLHAIHRCHP
Regarding B6, the Signal to Noise ratio with BRB1 Peptide (TR-FRET kinase assay; kinase 0.5 nM) stood at 32.5.

B7: TXK (protein)
chain: MILSSYNTIQSVFCCCCCCSVQKRQMRTQISLSTDEELPEKYTQRRRPWLSQLSNKKQSNTGRVQPSKRKPLPPLPPSEVAEEKIQVKALYDFLPREPCNLALRRAEEYLILEKYNPHWWKARDRLGNEGLIPSNYVTENKITNLEIYEWYHRNITRNQAEHLLRQESKEGAFIVRDSRHLGSYTISVFMGARRSTEAAIKHYQIKKNDSGQWYVAERHAFQSIPELIWYHQHNAAGLMTRLRYPVGLMGSCLPATAGFSYEKWEIDPSELAFIKEIGSGQFGVVHLGEWRSHIQVAIKAINEGSMSEEDFIEEAKVMMKLSHSKLVQLYGVCIQRKPLYIVTEFMENGCLLNYLRENKGKLRKEMLLSVCQDICEGMEYLERNGYIHRDLAARNCLVSSTCIVKISDFGMTRYVLDDEYVSSFGAKFPIKWSPPEVFLFNKYSSKSDVWSFGVLMWEVFTEGKMPFENKSNLQVVEAISEGFRLYRPHLAPMSIYEVMYSCWHEKPEGRPTFAELLRAVTEIAETW
On to B7, for which the Signal to Noise Ratio with BRB1 Peptide (TR-FRET kinase assay; kinase 3 nM) worked out at 5.9.
